Data set [1] concerns the molecule itself. The experiment in a line: FRET or BRET.
Data set [2] concerns the molecule itself. The experiment in a line: FRET or BRET. This is another data set of the same source.

Read-outs that look alike come from different tables or passages of the source.

B1: EnvZDC (DHp and CA domains of E. coli EnvZ, amino acids 223-450) (domain or fragment, UniProt P0AEJ4 223-450, looked up)
chain: MAAGVKQLADDRTLLMAGVSHDLRTPLTRIRLATEMMSEQDGYLAESINKDIEECNAIIEQFIDYLRTGQEMPMEMADLNAVLGEVIAAESGYEREIETALYPGSIEVKMHPLSIKRAVANMVVNAARYGNGWIKVSSGTEPNRAWFQVEDDGPGIAPEQRKHLFQPFVRGDSARTISGTGLGLAIVQRIVDNHNGMLELGTSERGGLSIRAWLPVPVTRAQGTTKEG
In “FRET or BRET [1]”, B1 returned a Kd of 100 nM.

B2: RstBDC (DHp and CA domains of E. coli RstB, amino acids 201-433) (domain or fragment, UniProt P18392 201-433, looked up)
chain: MADNINALIASKKQLIDGIAHELRTPLVRLRYRLEMSDNLSAAESQALNRDISQLEALIEELLTYARLDRPQNELHLSEPDLPLWLSTHLADIQAVTPDKTVRIKTLVQGHYAALDMRLMERVLDNLLNNALRYCHSTVETSLLLSGNRATLIVEDDGPGIAPENREHIFEPFVRLDPSRDRSTGGCGLGLAIVHSIALAMGGTVNCDTSELGGARFSFSWPLWHNIPQFTSA
In turn, B2 came in with a Kd in the data set “FRET or BRET [2]” of 270000 nM.

B3: RstBHDC (cytoplasmic HAMP, DHp and CA domains of E. coli histidine kinase RstB, amino acids 157-433) (domain or fragment, UniProt P18392 157-433, looked up)
chain: MRPHWQDMLKLEAAAQRFGDGHLNERIHFDEGSSFERLGVAFNQMADNINALIASKKQLIDGIAHELRTPLVRLRYRLEMSDNLSAAESQALNRDISQLEALIEELLTYARLDRPQNELHLSEPDLPLWLSTHLADIQAVTPDKTVRIKTLVQGHYAALDMRLMERVLDNLLNNALRYCHSTVETSLLLSGNRATLIVEDDGPGIAPENREHIFEPFVRLDPSRDRSTGGCGLGLAIVHSIALAMGGTVNCDTSELGGARFSFSWPLWHNIPQFTSA
Consider B3, for which the Kd in “FRET or BRET [1]” was found to be 300 nM.

B4: EnvZHDC (cytoplasmic HAMP, DHp and CA domains of E. coli histidine kinase EnvZ, amino acids 179-450) (domain or fragment, UniProt P0AEJ4 179-450, looked up)
chain: IRIQNRPLVDLEHAALQVGKGIIPPPLREYGASEVRSVTRAFNHMAAGVKQLADDRTLLMAGVSHDLRTPLTRIRLATEMMSEQDGYLAESINKDIEECNAIIEQFIDYLRTGQEMPMEMADLNAVLGEVIAAESGYEREIETALYPGSIEVKMHPLSIKRAVANMVVNAARYGNGWIKVSSGTEPNRAWFQVEDDGPGIAPEQRKHLFQPFVRGDSARTISGTGLGLAIVQRIVDNHNGMLELGTSERGGLSIRAWLPVPVTRAQGTTKEG
Protein B4 had a Kd in “FRET or BRET [1]” of 400 nM.

Source of the values: paper PMC3210482 (Journal of molecular biology, 2011).
